Test results: US20160223529

How the values were obtained:
[1] = molecular target: SH3^pep-EGFP-PDZ^pep
[2] = molecular target: Calmodulin

Row | Protein | HCV protease activity (quenched fluorescent HCV substrate) [1] | TVMV protease activity (degradation of fluorogenic TVMV substrate peptide) [2]
1 | TVMV-PDZ^dom with C-terminal HCV-inducible AI-domain (protein) SGGSGGSMEIRVRVEKDPELGFSISGGVGGRGNPFRPDDDGIFVTRVQPEGPASKLLQPGDKIIQANGYSFINIEHGQAVSLLKTFQNTVELIIVREVSSGGRGGSGGSGGSGGSGGSGGSSKALLKGVRDFNPISACVCLLENSSDGHSERLFGIGFGPYIIANQHLFRRNNGELTIKTMHGEFKVKNSTQLQMKPVEGRDIIVIKMAKDFPPFPQKLKFRQPTIKDRVCMVSTNFQQKSVSSLVSESSHIVHKEDTSFWQHWITTKDGQCGSPLVSIIDGNILGIHSLTHTTNGSNYFVEFPEKFVATYLDAADGWCKNWKFNADKISWGSFILWEDAPESGGDEMEECASHLGSGREYVRFAPGSTHHHHHH | resulting in reciprocal cleavage of the TVMV and HCV protease cleavage sites, thereby more fully activating both proteases | –
2 | HCV-SH3^dom with C-terminal TVMV-inducible AI-domain (protein) SMSTSGSGGAEYVRALFDFNGNDEEDLPFKKGDILRIRDKPEEQWWNAEDSEGKRGMIPVPYVEKYRPASASVSALIGGRGGSGGSGGSGGSGGSGGSAKGSVVIVGRINLSGDTAYSQQTRGAAGIAATSATGRDKNQVDGEVQVLSTATQSFLATCVNGVCWTVYHGAGSKTLAGPKGPITQMYTNVDQDLVGWPAPPGARSMTPCTCGSSDLYLVTRHADVIPVRRRGDSRGSLLSPRPVSYLKGSSGGPLLCPSGHVVGIFRAAVCTRGVAKAVDFIPVESMETTMRGGGGSGGETVRFQSGGSGGDELILCPLDLGGSGGTGHHHHHH | resulting in reciprocal cleavage of the TVMV and HCV protease cleavage sites, thereby more fully activating both proteases | –
3 | TVMV-AI-CalmodulinBinder (protein) SKALLKGVRDFNPISACVCLLENSSDGHSERLFGIGFGPYIIANQHLFRRNNGELTIKTMHGEFKVKNSTQLQMKPVEGRDIIVIKMAKDFPPFPQKLKFRQPTIKDRVCMVSTNFQQKSVSSLVSESSHIVHKEDTSFWQHWITTKDGQCGSPLVSIIDGNILGIHSLTHTTNGSNYFVEFPEKFVATYLDAADGWCKNWKFNADKISWGSFILWEDAPEDFMSGLVPRGVGREYVRFAPRWKKNFIAVSAANRFKKISSSGAL | – | releasing inhibition of the TVMV protease by the autoinhibitor peptide
